The values below come from article PMC6735392, “The miR-26a/AP-2α/Nanog signaling axis mediates stem cell self-renewal and temozolomide resistance in glioma”.

This series has as its target GST-AP-2α (UniProt P05549 1-437). The experiment in a line: EMSA; EMSA/Gel-Shift Kit (Beyotime) binding buffer, 10 μL, 5 μg GST-AP-2α, 2 pmol biotin probe, 30 min room temperature, 4% nondenaturing gel; salt and pH not stated. The note with it: protein: recombinant, tags: GST, blunt. (Mobility shift assays separate free from complexed probe on a gel.)

Sequence of GST-AP-2α (P05549 whole entry): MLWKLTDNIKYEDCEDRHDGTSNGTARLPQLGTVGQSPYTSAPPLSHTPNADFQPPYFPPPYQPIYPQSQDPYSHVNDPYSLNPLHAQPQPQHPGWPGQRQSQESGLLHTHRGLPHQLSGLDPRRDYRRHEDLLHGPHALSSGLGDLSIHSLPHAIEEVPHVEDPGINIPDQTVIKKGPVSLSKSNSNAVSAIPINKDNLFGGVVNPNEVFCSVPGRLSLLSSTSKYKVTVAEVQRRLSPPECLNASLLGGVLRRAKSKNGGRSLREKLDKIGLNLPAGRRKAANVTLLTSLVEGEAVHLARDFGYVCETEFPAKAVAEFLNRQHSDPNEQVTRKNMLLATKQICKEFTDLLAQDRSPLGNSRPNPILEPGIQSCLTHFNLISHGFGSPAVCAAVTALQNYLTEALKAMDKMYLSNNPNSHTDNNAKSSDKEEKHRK

B1: Nanog(-568/-544) WT (dsDNA)
DNA 1: GATCCGCCTGCCACGGCCTCCCAAT
DNA 2: ATTGGGAGGCCGTGGCAGGCGGATC
Take B1: the binding result (label: 3' biotin (hot probe)) was “binds”.

B2: Nanog(-527/-503) WT (dsDNA)
DNA 1: GGTGGGCCACCGCGCCCGGCCTTTT
DNA 2: AAAAGGCCGGGCGCGGTGGCCCACC
With B2, the binding result (label: 3' biotin (hot probe)) was “binds”.

B3: Nanog(-568/-544) mut (dsDNA)
DNA 1: GATCCGCCTATTACGTCATCCCAAT
DNA 2: ATTGGGATGACGTAATAGGCGGATC
Regarding B3, the binding result (label: 3' biotin) is given as “no binding”.

B4: Nanog(-527/-503) mut (dsDNA)
DNA 1: GGTGGGCCACCAAGCCCATACTTTT
DNA 2: AAAAGTATGGGCTTGGTGGCCCACC
For the molecule B4, the binding result (label: 3' biotin) is given as “no binding”.
